Measured values taken from article PMC6740199 (Molecular Biology of the Cell, 2019).

Molecular target: T1, six-histidine-tagged Bem1 (His6-Bem1), carrying Bem1 residues from 44 to 551 (S. cerevisiae, UniProt P29366 44-551)
T1 sequence: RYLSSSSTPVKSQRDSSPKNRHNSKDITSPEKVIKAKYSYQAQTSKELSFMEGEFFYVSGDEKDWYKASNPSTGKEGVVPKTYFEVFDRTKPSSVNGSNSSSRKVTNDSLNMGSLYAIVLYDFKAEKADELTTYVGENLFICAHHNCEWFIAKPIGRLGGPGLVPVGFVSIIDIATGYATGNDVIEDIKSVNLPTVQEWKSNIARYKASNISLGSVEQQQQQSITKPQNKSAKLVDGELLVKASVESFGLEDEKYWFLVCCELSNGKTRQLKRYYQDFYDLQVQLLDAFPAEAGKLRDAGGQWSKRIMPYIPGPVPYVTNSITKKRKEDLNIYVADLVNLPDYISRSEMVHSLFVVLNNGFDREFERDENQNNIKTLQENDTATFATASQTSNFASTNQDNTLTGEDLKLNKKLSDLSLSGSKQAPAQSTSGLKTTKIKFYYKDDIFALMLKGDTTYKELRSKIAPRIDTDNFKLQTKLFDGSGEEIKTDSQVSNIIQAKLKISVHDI
Assay: pull-down

binding result: binds
B1: GST (glutathione S-transferase)-Rsr1 (natural protein)
chain: MRDYKLVVLGAGGVGKSCLTVQFVQGVYLDTYDPTIEDSYRKTIEIDNKVFDLEILDTAGIAQFTAMRELYIKSGMGFLLVYSVTDRQSLEELMELREQVLRIKDSDRVPMVLIGNKADLINERVISVEEGIEVSSKWGRVPFYETSALLRSNVDEVFVDLVRQIIRNEMESVAVKDARNQSQQFSKIESPSTRLPSSAKQDTKQSNNKQSSKGLYNKSSQGQAKVKQSTPVNEKHKPSHAVPKSGSSNRTGISATSQQKKKKKNASTCTIL
